{"source": "paper PMC10100024", "about": "(British Journal of Pharmacology, 2022)", "binders": {"B1": {"name": "Nluc-(human)-Arrestin-2-Sp1 (natural protein, UniProt P49407 1-418, looked up)", "chain": "MGDKGTRVFKKASPNGKLTVYLGKRDFVDHIDLVDPVDGVVLVDPEYLKERRVYVTLTCAFRYGREDLDVLGLTFRKDLFVANVQSFPPAPEDKKPLTRLQERLIKKLGEHAYPFTFEIPPNLPCSVTLQPGPEDTGKACGVDYEVKAFCAENLEEKIHKRNSVRLVIRKVQYAPERPGPQPTAETTRQFLMSDKPLHLEASLDKEIYYHGEPISVNVHVTNNTNKTVKKIKISVRQYADICLFNTAQYKCPVAMEEADDTVAPSSTFCKVYTLTPFLANNREKRGLALDGKLKHEDTNLASSTLLREGANREILGIIVSYKVKVKLVVSRGGLLGDLASSDVAVELPFTLMHPKPKEEPPHREVPENETPVDTNLIELDTNDDDIVFEDFARQRLKGMKDDKEEEEDGTGSPQLNNR"}}, "assay_in_all_cases": "FRET or BRET", "key": {"[1]": {"molecular_target": "T1, pplss-3HA-hCB1 receptor, wild type (human, UniProt P21554 1-472)"}, "[2]": {"molecular_target": "T2, pplss-3HA-hCB1 receptor S425A/S429A (D1) (human, UniProt P21554 1-472, S425A | S429A)"}, "[3]": {"molecular_target": "T3, pplss-3HA-hCB1 receptor S462A/T465A (D2) (human, UniProt P21554 1-472, S462A | T465A)"}, "[4]": {"molecular_target": "T4, pplss-3HA-hCB1 receptor S464A/T467A (D3) (human, UniProt P21554 1-472, S464A | T467A)"}, "[5]": {"molecular_target": "T5, pplss-3HA-hCB1 receptor T465A/S468A (D4) (human, UniProt P21554 1-472, T465A | S468A)"}, "[6]": {"molecular_target": "T6, pplss-3HA-hCB1 receptor S462A/S464A/T465A (T) (human, UniProt P21554 1-472, S462A | S464A | T465A)"}, "[7]": {"molecular_target": "T1, pplss-3HA-hCB1 receptor, wild type", "remark": "listed apart in the source"}, "[8]": {"molecular_target": "T2, pplss-3HA-hCB1 receptor S425A/S429A (D1)", "remark": "listed apart in the source"}, "[9]": {"molecular_target": "T3, pplss-3HA-hCB1 receptor S462A/T465A (D2)", "remark": "listed apart in the source"}, "[10]": {"molecular_target": "T4, pplss-3HA-hCB1 receptor S464A/T467A (D3)", "remark": "listed apart in the source"}, "[11]": {"molecular_target": "T5, pplss-3HA-hCB1 receptor T465A/S468A (D4)", "remark": "listed apart in the source"}, "[12]": {"molecular_target": "T6, pplss-3HA-hCB1 receptor …", "remark": "listed apart in the source"}}, "data": [{"binder": "B1", "values": [{"measurement": "Emax of net translocation (%WT)", "setting": "[1]", "value": 100, "unit": "%WT"}, {"measurement": "Emax of net translocation (%WT)", "setting": "[2]", "value": 72.3, "unit": "%WT"}, {"measurement": "Emax of net translocation (%WT)", "setting": "[3]", "value": 32.3, "unit": "%WT"}, {"measurement": "Emax of net translocation (%WT)", "setting": "[4]", "value": 32.9, "unit": "%WT"}, {"measurement": "Emax of net translocation (%WT)", "setting": "[5]", "value": 61.6, "unit": "%WT"}, {"measurement": "Emax of net translocation (%WT)", "setting": "[6]", "value": 25.6, "unit": "%WT"}, {"measurement": "initial rate of translocation", "setting": "[7]", "value": "0.000136 ΔBRET ratio per second"}, {"measurement": "steady state (ΔBRET ratio)", "setting": "[7]", "value": "0.036 ΔBRET ratio"}, {"measurement": "translocation half time", "setting": "[7]", "value": 185, "unit": "s"}, {"measurement": "initial rate of translocation", "setting": "[8]", "value": "5.81e-05 ΔBRET ratio per second"}, {"measurement": "steady state (ΔBRET ratio)", "setting": "[8]", "value": "0.036 ΔBRET ratio"}, {"measurement": "translocation half time", "setting": "[8]", "value": 569, "unit": "s"}, {"measurement": "initial rate of translocation", "setting": "[9]", "value": "3.77e-05 ΔBRET ratio per second"}, {"measurement": "steady state (ΔBRET ratio)", "setting": "[9]", "value": "0.012 ΔBRET ratio"}, {"measurement": "translocation half time", "setting": "[9]", "value": 286, "unit": "s"}, {"measurement": "initial rate of translocation", "setting": "[10]", "value": "3.06e-05 ΔBRET ratio per second"}, {"measurement": "steady state (ΔBRET ratio)", "setting": "[10]", "value": "0.014 ΔBRET ratio"}, {"measurement": "translocation half time", "setting": "[10]", "value": 354, "unit": "s"}, {"measurement": "initial rate of translocation", "setting": "[11]", "value": "7.31e-05 ΔBRET ratio per second"}, {"measurement": "steady state (ΔBRET ratio)", "setting": "[11]", "value": "0.022 ΔBRET ratio"}, {"measurement": "translocation half time", "setting": "[11]", "value": 210, "unit": "s"}, {"measurement": "initial rate of translocation", "setting": "[12]", "value": "3.32e-05 ΔBRET ratio per second"}, {"measurement": "steady state (ΔBRET ratio)", "setting": "[12]", "value": "0.014 ΔBRET ratio"}, {"measurement": "translocation half time", "setting": "[12]", "value": 354, "unit": "s"}]}]}
